Holding throughout (details): high-affinity site of two-site fit (apparent dissociation constant); 98 mM Na+ buffer; holding voltage -50 mV
Substrate in series [1]: NCCC[C@H](N)C(=O)O
The series is described as follows: cells, lysate or membranes.

Substrate in series [2]: N=C(N)NCCC[C@H](N)C(=O)O
The series can be described thus: two-electrode voltage clamp, substrate-induced currents in Xenopus oocytes, two-site saturation fit. In kind it is cell-based, Aedes aegypti. (Two-electrode voltage clamp is typically applied to oocytes expressing channels or transporters.)

Substrate in series [3]: N[C@@H](Cc1ccccc1)C(=O)O
Described as above. In kind it is cell-based, Aedes aegypti.

B1: AaSlif (=AaCAT3; Slimfast) (Aedes aegypti) (protein)
chain: MRQGGRIDRFWIALTRKKRNEDDGSDSQLARVLSLLDLTGLGVGSTLGLGVYVLAGSVAYEQAGPAVVISFLVAAVASAIAALCYAEFAARVPKAGSAYIYSYVSIGEFAAFTIGWNLILEYVIGTSSVARGMSGYIDELAGKKISTALKETMGMNVDFLSDYPDFFSFVVVLILAALLAYGVKESTLMNNIFTGVNLCVIAIVLVAGGMNCDPANWMIKPEDIPKGIDAGVGGFAPYGFAGIMAGAAKCFYGFVGFDCIATTGEEAKNPSRNIPLAIVISLIIIFLAYFGISTVLTMALPYYLQNPDAPFPHLFEQLEWHAIKWIVSIGAIFALCTSLLGAMFPLPRVLYAMSTDGIIYKKLRTVHPKTQTPVLATILAGLLAATMAMLFNLQQLIDMMSIGTLLAYTIVAVSVLVLRYEDQTLMQSATVTIPNVFRQVFNVDKLKSPTTLSSSIVKFGICIFALLVCAVCTILVLATDELSAEYPGTLAAISVLGACMVFLIIVTALQPTENTKLTFKVPLVPLLPMLSVFFNLYLMFQLDAGTWVRFAVWIVIGYLIYFTYGIKHSVEGAIAKQAAVNGNGITIVKNGIDNNAFDGSNDKFVSTVPAENPRKSSKNSYSLNNE
notes: full length, 626 residues (1,881-nt ORF); Xenopus codon-optimised (synonymous) in pXOOM, without tag or with C-terminal eGFP (used interchangeably); cRNA expressed in Xenopus laevis oocytes
For the protein B1, the K0.5 in series [1] amounted to 13.8 ± 6.2 µM; in series [2], 5.2 ± 1.4 µM; in series [3], 15.6 ± 8.5 µM.

For the origin of these results see paper PMC4608377, “Substrate specificity and transport mechanism of amino-acid transceptor Slimfast from Aedes aegypti” (Nature Communications, 2015).
